The series deals with the molecule itself. As to the kind of experiment: SEC; purified rApoJ on a size exclusion column; wide peak at 12-16 ml and a homogeneous peak at 16-18 ml (maximum 16.5 ml) of the elution volume; column and buffer are in the Supplementary Information. (Size exclusion chromatography separates by hydrodynamic size, large species first.)

B1: recombinant human ApoJ (rApoJ), free (non-lipidated) (natural protein)
chain 1: DQTVSDNELQEMSNQGSKYVNKEIQNAVNGVKQIKTLIEKTNEERKTLLSNLEEAKKKKEDALNETRESETKLKELPGVCNETMMALWEECKPCLKQTCMKFYARVCRSGSGLVGRQLEEFLNQSSPFYFWMNGDRIDSLLENDRQQTHMLDVMQDHFSRASSIIDELFQDRFFTREPQDTYHYLPFSLPHRRPHFFFPKSRIVR
chain 2: SLMPFSPYEPLNFHAMFQPFLEMIHEAQQAMDIHFHSPAFQHPPTEFIREGDDDRTVCREIRHNSTGCLRMKDQCDKCREILSVDCSTNNPSQAKLRRELDESLQVAERLTRKYNELLKSYQWKMLNTSSLLEQLNEQFNWVSRLANLTQGEDQYYLRVTTVASHTSDSDVPSGVTEVVVKLFDSDPITVTVPVEVSRKNPKFMETVAEKALQEYRKKHREE
notes: apolipoprotein J (clusterin), human, beta chain: cut product of the precursor, disulfide-bonded to the alpha chain; apolipoprotein J (clusterin), human, alpha chain: cut product of the precursor, disulfide-bonded to the beta chain; Heterodimer of alpha and beta chains (about 40 kDa each, about 77 kDa non-reduced); They are written on the alpha chain on the surmise that they sit at the C-terminus …
As for B1, the binding result is “binds”.

(Values after article PMC5677083, “Characterization of ApoJ-reconstituted high-density lipoprotein (rHDL) nanodisc for the potential treatment of cerebral β-amyloidosis” (Scientific Reports, 2017).)
